According to patent publication US20200017563A1 (University of California, published 2020):

Experiments:
[1] = biological target: Human Tau K18 2×IN (V308I/Y309N) (human) (UniProt P10636); assay: cell-based or functional assay
[2] = biological target: Human Tau K18 2×VY (I278V/N279Y) (human) (UniProt P10636); assay: cell-based or functional assay
[3] = biological target: Human Tau40 (residues 1-441) with a C-terminal His-tag (human, UniProt P10636 1-757); assay: cell-based or functional assay
[4] = biological target: the molecule itself; assay: MicroED structure of fibril nanocrystals; self-association
Description: (§1) Nanocrystals of […] (SEQ ID NO: 12) synthetic peptide (purchased from Genscript) were prepared from 30 mg/ml stocks dissolved in water by the addition of 45 mM arachidonic acid to concentrated peptide. Subsequently crystals were grown in batch at 37° C. by the addition of 10 μl of precipitant (32% PEG10K in 100 mM phosphate citrate, pH 4.2) to 5 μl of protein. After 18 hours nanocrystals were resuspended by pipetting, spun down in an epitube and the resulting crystalline pellet was washed three times with water. Nanocrystals of VQIINK (SEQ ID NO: 11) peptide (purchased from Genscript) were grown by vapor diffusion from peptide at 15 mg/ml as a 1:2 drop ratio (protein:reservoir) from 0.29 M LiNO3, 24% (w/v) PEG 3350 at 18° C. and similarly harvested for data collection.
(§2) MicroED data were collected by spotting 2-3 μl of crystals onto TEM grids with carbon film support and plunge frozen in liquid ethane using a Vitrobot Mark IV (FEI). Diffraction images were collected on an FEI Tecnai F20 TEM at 200 kV as a continuous rotation tilt series at a rate of 0.2° per second with 2 second exposures per image. Diffraction data from several crystals were indexed, merged and scaled with XDS and XSCALE.²⁷ Molecular replacement was performed with Phaser²⁸ using a polyalanine search model composed of an ideal β-strand. The structure of VQIINK (SEQ ID NO: 11) was solved using a truncated version of […] […]

[5] = biological target: the molecule itself; assay: MicroED structure of nanocrystals; self-association
Description: as §1, §2

Chain of Human Tau40 (residues 1-441) with a C-terminal His-tag (P10636 other isoform, or with tags, fused parts or gaps): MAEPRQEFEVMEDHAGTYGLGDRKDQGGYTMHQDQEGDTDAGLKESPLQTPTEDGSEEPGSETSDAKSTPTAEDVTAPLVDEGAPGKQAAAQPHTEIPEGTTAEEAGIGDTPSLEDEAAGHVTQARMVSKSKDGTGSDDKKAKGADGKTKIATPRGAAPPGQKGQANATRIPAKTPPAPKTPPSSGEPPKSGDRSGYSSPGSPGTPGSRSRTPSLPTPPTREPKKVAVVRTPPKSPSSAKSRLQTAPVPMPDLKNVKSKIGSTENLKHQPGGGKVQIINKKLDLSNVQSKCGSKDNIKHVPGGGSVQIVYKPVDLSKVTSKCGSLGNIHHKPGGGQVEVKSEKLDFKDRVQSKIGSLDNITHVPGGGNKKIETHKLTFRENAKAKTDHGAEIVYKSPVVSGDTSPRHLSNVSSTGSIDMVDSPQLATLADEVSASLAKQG

Molecule: Human Tau K18 2×IN (V308I/Y309N) (from UniProt P10636 561-689)
- ThT fluorescence, time to half maximum of fibril formation (50 µM, heparin, shaking, 37° C.) [1]: 70 min

Molecule: Human Tau K18 2×VY (I278V/N279Y) (from UniProt P10636 561-689)
- ThT fluorescence, time to half maximum of fibril formation (50 µM, heparin, shaking, 37° C.) [2]: 220 min

Molecule: DVQMINKKRK [MINK inhibitor peptide]
- IC50 of inhibition of seeding by pre-formed Tau40 fibers in biosensor cells [3]: 22 µM

Molecule: DVQWINKKRK [WINK inhibitor peptide]
- IC50 of inhibition of seeding by pre-formed Tau40 fibers in biosensor cells [3]: 25 µM

B1: KVQIINKKLD synthetic peptide (ten residue Tau segment) (peptide)
peptide: KVQIINKKLD
notes: The peptide corresponds to Tau40 residues 274-283; also called ten residue VQIINK segment
- binding result [4]: binds

Molecule: DVWMINKKRK [W-MINK Phase 2 inhibitor peptide]
- IC50 of inhibition of seeding by pre-formed Tau40 fibers in biosensor cells [3]: 9 µM

Molecule: VQIINK [VQIINK peptide (six residue Tau segment)]
- binding result [5]: binds
